{
  "source": "paper PMC2115704",
  "about": "(The Journal of Cell Biology, 1989)",
  "molecular_target": "the molecule itself",
  "assay": "SDS-PAGE in the absence of reductant",
  "data": [
    {"protein": "platelet thrombospondin (natural protein, iodinated (residues not stated)) not shown", "values": [
      {"measurement": "stoichiometry N", "value": 3}
    ]}
  ]
}
